Experimental findings from US20110014201A1 are described below.

The experiment deals with Recombinant human IL-18 (Peprotech 200-18) (human) (UniProt Q14116). The experiment is described as follows: cell-based or functional assay.
Recombinant human IL-18 (Peprotech 200-18) (human), sequence (Q14116 37-193 limits assumed): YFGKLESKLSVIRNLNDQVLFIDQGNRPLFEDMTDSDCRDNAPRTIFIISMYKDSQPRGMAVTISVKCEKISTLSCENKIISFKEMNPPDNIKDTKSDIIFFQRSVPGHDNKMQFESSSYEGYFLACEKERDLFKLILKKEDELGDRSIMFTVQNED

recombinant IL-18BP/Fc chimera (R&D Systems, 119-BP), sequence (O95998 31-194, change not shown): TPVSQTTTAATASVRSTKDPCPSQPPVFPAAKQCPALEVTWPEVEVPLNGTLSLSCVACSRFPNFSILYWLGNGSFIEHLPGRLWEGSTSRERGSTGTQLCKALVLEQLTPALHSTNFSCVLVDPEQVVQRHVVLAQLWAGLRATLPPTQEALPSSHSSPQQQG

Turning to “recombinant IL-18BP/Fc chimera (R&D Systems, 119-BP) (from UniProt O95998 31-194) (Fc fusion)”, the ED50, inhibition of INF-γ release by KG1 cells was 520 pM.
